Laboratory results published in PMC2853120.

Legend:
[1] = molecular target: T1, tyrosyl-DNA phosphodiesterase 1 (Tdp1) (Homo sapiens, UniProt Q9NUW8 1-608); assay: fluorescence anisotropy
[2] = molecular target: T1, tyrosyl-DNA phosphodiesterase 1 (Tdp1); assay: fluorescence anisotropy; remark: listed apart in the source
[3] = molecular target: T1, tyrosyl-DNA phosphodiesterase 1 (Tdp1); assay: SPR
[4] = molecular target: T1, tyrosyl-DNA phosphodiesterase 1 (Tdp1); assay: SPR; remark: listed apart in the source
[5] = molecular target: T1, tyrosyl-DNA phosphodiesterase 1 (Tdp1); assay: competition

T1 sequence (Q9NUW8 whole entry): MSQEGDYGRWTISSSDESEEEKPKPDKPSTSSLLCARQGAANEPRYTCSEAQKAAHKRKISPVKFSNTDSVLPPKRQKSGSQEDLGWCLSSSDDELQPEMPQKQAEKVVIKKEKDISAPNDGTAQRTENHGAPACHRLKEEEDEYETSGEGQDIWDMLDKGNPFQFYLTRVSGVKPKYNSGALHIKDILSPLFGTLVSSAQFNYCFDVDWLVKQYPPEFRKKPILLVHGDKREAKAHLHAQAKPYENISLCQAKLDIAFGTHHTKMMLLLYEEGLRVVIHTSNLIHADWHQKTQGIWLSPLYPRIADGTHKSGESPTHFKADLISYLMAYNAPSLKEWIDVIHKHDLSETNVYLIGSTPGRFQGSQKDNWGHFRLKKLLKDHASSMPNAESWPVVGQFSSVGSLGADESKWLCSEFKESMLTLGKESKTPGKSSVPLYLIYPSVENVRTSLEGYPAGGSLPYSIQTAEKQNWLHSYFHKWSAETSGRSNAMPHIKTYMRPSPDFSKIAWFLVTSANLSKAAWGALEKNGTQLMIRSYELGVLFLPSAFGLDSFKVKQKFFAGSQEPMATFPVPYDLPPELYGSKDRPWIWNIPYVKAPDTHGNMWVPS

B1: F14 (ssDNA)
DNA: GATCTAAAAGACTT
modifications: 5'-6-FAM via phosphodiester; 3'-OH
- Kd [1]: 76.9 nM

B2: F14p (ssDNA)
DNA: GATCTAAAAGACTT
modifications: 5'-6-FAM via phosphodiester; 3'-phosphate
- Kd [2]: 34.1 nM

B3: 15(pS)F (ssDNA)
DNA: GATCTAAAAGACTTG
modifications: 3'-6-FAM via phosphorothioate (non-hydrolyzable)
- Kd [2]: 2.4 nM

B4: F15 (ssDNA)
DNA: GATCTAAAAGACTTG
modifications: 5'-6-FAM via phosphodiester; 3'-OH
- Kd [2]: 39.2 nM

B5: F(pS)15 (ssDNA)
DNA: GATCTAAAAGACTTG
modifications: 5'-6-FAM via phosphorothioate; 3'-OH
- Kd [2]: 26.3 nM

B6: B14p (ssDNA)
DNA: GATCTAAAAGACTT
modifications: 5'-biotin; 3'-phosphate
- Kd [3]: 57 nM

B7: p14B (ssDNA)
DNA: GATCTAAAAGACTT
modifications: 5'-phosphate; 3'-biotin
- binding result [4]: no binding

B8: 50p (ssDNA)
DNA: AAGATCTAAAAGACTTAAGGATCTAAAAGACTTGAAGATCTAAAAGACTT
modifications: 3'-phosphate
- binding signal [5]: ~10 fold higher affinity than 14p
